Test results reported in article PMC4535689.

T1: human NGL-2 extracellular fragment (LRR and Ig domains) (human)
T1 sequence (Q9HBW1 whole entry, looked up): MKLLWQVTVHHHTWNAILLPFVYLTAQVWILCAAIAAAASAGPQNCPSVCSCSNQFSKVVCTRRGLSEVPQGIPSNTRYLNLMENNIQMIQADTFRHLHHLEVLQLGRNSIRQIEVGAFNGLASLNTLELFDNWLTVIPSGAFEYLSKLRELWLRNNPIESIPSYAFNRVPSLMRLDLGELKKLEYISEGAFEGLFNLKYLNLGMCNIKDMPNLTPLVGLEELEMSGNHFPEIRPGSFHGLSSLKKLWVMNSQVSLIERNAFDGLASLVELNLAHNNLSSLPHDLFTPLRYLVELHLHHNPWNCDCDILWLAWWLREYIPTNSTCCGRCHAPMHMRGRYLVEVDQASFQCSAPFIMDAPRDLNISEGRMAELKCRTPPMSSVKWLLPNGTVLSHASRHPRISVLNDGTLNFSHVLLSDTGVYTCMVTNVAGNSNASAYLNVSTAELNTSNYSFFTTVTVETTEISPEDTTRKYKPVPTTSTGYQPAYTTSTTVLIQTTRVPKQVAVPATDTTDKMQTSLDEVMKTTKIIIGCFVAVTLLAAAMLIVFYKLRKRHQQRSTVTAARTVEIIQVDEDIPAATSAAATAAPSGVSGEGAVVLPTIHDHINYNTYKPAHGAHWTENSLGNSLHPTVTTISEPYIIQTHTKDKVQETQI

B1: human netrin G2, full ectodomain (LN domain, LE1-3 and C'), lacking only the GPI anchor site (domain or fragment)
chain: DYDICKSWVTTDEGPTWEFYACQPKVMRLKDYVKVKVEPSGITCGDPPERFCSHENPYLCSNECDASNPDLAHPPRLMFDKEEEGLATYWQSITWSRYPSPLEANITLSWNKTVELTDDVVMTFEYGRPTVMVLEKSLDNGRTWQPYQFYAEDCMEAFGMSARRARDMSSSSAHRVLCTEEYSRWAGSKKEKHVRFEVRDRFAIFAGPDLRNMDNLYTRLESAKGLKEFFTLTDLRMRLLRPALGGTYVQRENLYKYFYAISNIEVIGRCKCNLHANLCSMREGSLQCECEHNTTGPDCGKCKKNFRTRSWRAGSYLPLPHGSPNACATAGSFGNCECYGHSNRCSYIDFLNVVTCVSCKHNTRGQHCQHCRLGYYRNGSAELDDENVCIECNCNQIGSVHDRCNETGFCECREGAAGPKCDDCLPTHYWRQGCYPNVCDDDQLLCQNGGTCLQNQRCACPRGYTGVRCEQPRCDPADDDGGLDCDR
B2: human sNetrin G2 ("short" netrin G2, LN and LE1 domains only) (domain or fragment)
chain: DYDICKSWVTTDEGPTWEFYACQPKVMRLKDYVKVKVEPSGITCGDPPERFCSHENPYLCSNECDASNPDLAHPPRLMFDKEEEGLATYWQSITWSRYPSPLEANITLSWNKTVELTDDVVMTFEYGRPTVMVLEKSLDNGRTWQPYQFYAEDCMEAFGMSARRARDMSSSSAHRVLCTEEYSRWAGSKKEKHVRFEVRDRFAIFAGPDLRNMDNLYTRLESAKGLKEFFTLTDLRMRLLRPALGGTYVQRENLYKYFYAISNIEVIGRCKCNLHANLCSMREGSLQCECEHNTTGPDCGKCKKNFRTRSWRAGSYLPLPHGSPNACATAGS
modifications: N-linked glycans at Asn105 and Asn111 (seen in the crystal structure)

What was measured:
[1] = target: mouse NGL-1 extracellular fragment (LRR and Ig domains) (mouse); assay: AUC
[2] = target: T1, human NGL-2 extracellular fragment (LRR and Ig domains) (human); assay: AUC

Row | Molecule | Kd [1] [nM] | stoichiometry N [1] | Kd [2] [nM] | stoichiometry N [2]
1 | mouse netrin G1 isoform G1f (LN and LE1 domains) (natural protein) | 505 | 1 |  | 
2 | mouse netrin G1 isoform G1j (LN domain only) (natural protein) | 1490 |  |  | 
3 | B1 |  |  | 264 | 1
4 | B2 |  |  | 180 | 
